From patent US20120301473A1 (NORTHWESTERN UNIVERSITY, published 2012)

Columns and labels:
[1] = target: untagged recombinant full-length human α-synuclein (human, UniProt P37840 1-140); test: dot blot
Experimental: (§1) 45 ng/spot was applied to the nitrocellulose. Total Tau was determined using Tau12. […] Each point represents a minimum of three independent measurements. […] Scale bar is 200 nm. […] Monomeric and dimeric Tau were isolated from the same aggregation reaction. Also included is an electroeluted monomeric sample that was never exposed to AA (−AA). 12 ng/spot was applied to the nitrocellulose.
(§2) For dot blots, samples were spotted directly onto nitrocellulose membranes (44). Both Western and dot blot membranes were blocked with 5% nonfat dry milk in TBS, pH 7.4, and incubated in primary antibodies overnight at 4° C. For dot blots, 0.05% Triton X-100 was added to the TBS solution. The Tau12 (45), TauS (46), Tau7 (47), MOAB-2 (a mouse monoclonal antibody (IgG1) produced in the Binder laboratory what recognizes Aβ40 and −42), and TOC1 mouse monoclonal antibodies were used at 0.0067, 0.01, 0.04, 0.05, and 0.1 μg/ml, respectively. The mouse monoclonal anti-α-synuclein (Chemicon; MAB5320) and rabbit monoclonal anti-β-actin (Cell Signaling Technology; clone 13E5) antibodies were diluted to 1:2000 and 1:1000, respectively. The rabbit polyclonal antibodies R1 (48) and His-probe (Santa Cruz Biotechnology; clone H-15) were used at 0.0075 and 0.5 μg/ml, respectively. […]

[2] = target: T1, recombinant human Aβ42 (rPeptide) (human, UniProt P05067 672-713); test: dot blot
T1 construct: domain: Aβ42; Tested in the monomeric (unaggregated), oligomeric and filamentous states; also called Aβ Olig; Aβ Fil
Experimental: as §1, §2

[3] = target: T2, Tau MTBR construct consisting of residues 244-372 of hTau40 (human, UniProt P10636 561-689); test: dot blot of AA-assembled construct
T2 construct: Expressed in E. coli from pET-17b; Assembled with AA before the dot blot; not shown: poly-His tag C-terminal to residue 372

[4] = target: tau deletion construct Δ209-228 (hTau40), aggregated (human, UniProt P10636 1-758); test: aggregated deletion construct incubated with the antibody
Experimental: (§3) Two overlapping tau deletion constructs (Δ209-228 and Δ221-238) were aggregated and incubated with the TOC1 antibody or with the Tau7 antibody. Both were positive for Tau7 which recognizes the last 11 amino acids of tau, but negative for TOC1.

[5] = target: tau deletion construct Δ221-238 (hTau40), aggregated (human, UniProt P10636 1-758); test: as above
Experimental: as §3

[6] = target: T3, Tau oligomers (hTau40 aggregates <50 nm in length; sucrose gradient Fraction 3) (human, UniProt P10636 1-758); test: immunogold EM, normalised to poly-His tag labeling of the same preparation
T3 construct: Prefibrillar aggregates of recombinant poly-His tagged hTau40 made with arachidonic acid; The number of chains is not defined; also called oligomeric structures; oligomer fraction
T3 sequence (P10636 other isoform, or with tags, fused parts or gaps limits assumed): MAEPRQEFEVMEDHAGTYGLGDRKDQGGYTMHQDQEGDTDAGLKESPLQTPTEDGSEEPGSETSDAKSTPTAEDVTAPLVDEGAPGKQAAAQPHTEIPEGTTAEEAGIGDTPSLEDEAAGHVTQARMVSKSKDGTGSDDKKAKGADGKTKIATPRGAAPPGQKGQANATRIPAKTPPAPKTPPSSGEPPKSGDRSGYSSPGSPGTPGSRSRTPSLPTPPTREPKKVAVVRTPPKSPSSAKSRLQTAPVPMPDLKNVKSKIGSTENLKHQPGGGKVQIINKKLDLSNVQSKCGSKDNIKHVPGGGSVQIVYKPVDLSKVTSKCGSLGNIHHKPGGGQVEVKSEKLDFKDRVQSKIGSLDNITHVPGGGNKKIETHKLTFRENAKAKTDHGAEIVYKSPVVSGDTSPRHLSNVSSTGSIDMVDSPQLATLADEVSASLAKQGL

tau deletion construct Δ209-228 (hTau40), aggregated, sequence (P10636 other isoform, or with tags, fused parts or gaps mutant): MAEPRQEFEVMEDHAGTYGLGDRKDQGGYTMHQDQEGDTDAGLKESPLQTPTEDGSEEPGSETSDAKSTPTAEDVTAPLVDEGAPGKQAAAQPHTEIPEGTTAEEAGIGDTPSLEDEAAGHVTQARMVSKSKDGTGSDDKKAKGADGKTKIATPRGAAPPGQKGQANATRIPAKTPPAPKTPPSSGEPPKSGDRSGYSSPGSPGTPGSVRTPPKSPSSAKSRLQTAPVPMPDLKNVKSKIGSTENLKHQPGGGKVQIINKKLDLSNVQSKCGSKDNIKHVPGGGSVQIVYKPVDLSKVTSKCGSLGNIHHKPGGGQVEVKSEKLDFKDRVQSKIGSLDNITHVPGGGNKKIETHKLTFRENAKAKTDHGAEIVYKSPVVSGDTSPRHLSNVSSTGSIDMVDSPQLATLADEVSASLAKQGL
T2 sequence (P10636 other isoform, or with tags, fused parts or gaps): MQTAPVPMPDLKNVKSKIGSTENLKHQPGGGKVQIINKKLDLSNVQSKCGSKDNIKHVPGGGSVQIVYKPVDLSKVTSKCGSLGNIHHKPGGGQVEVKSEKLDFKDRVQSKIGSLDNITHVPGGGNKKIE
tau deletion construct Δ221-238 (hTau40), aggregated, sequence (P10636 other isoform, or with tags, fused parts or gaps mutant): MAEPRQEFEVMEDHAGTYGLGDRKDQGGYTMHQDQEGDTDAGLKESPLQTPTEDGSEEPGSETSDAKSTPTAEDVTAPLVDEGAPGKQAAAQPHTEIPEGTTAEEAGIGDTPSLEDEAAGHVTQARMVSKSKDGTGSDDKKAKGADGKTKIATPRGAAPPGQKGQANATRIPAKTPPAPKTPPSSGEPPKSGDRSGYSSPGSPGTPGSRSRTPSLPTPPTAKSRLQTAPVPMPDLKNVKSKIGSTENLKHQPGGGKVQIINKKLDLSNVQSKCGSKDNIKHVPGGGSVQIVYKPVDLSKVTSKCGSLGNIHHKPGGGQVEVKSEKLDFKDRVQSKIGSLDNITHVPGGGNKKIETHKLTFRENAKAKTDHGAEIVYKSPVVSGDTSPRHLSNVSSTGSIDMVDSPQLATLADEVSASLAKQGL
T1 sequence (P05067 672-713 limits assumed): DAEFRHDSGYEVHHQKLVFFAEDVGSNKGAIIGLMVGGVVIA

B1: Tau oligomeric complex-1 (TOC1) monoclonal antibody (antibody)
heavy: QVQLQQPGAELVMPGASVKLSCKASGYTFTSYWMHWVKQRPGQGLEWIGEIDPSDSYTNYNQKFKGKSTLTVDKSSSTAYMQLSSLTSEDSAVYYCARSGDGSSPWYFDVWGTGTTVTVSSESQSFPNVFPLVSCESPLSDKNLVAMGCLARDFLPSTISFTWNYQNNTEVIQGIRTFPTLRTGGKYLATSQVLLSPKSILEGSDEYLVCKIHYGGKNKDLHVPIPAVAEMNPNVNVFVPPRDGFSGPAPRKSKLICEATNFTPKPITVSWLKDGKLVESGFTTDPVTIENKGSTPQTYKVISTLTISEIDWLNLNVYTCRVDHRGLTFLKNVSSTCAASPSTDILTFTIPPSFADIFLSKSANLTCLVSNLATYETLNISWASQSGEPLETKIKIMESHPNGTFSAKGVASVCVEDWNNRKEFVCTVTHRDLPSPQKKFISKPNEVHKHPPAVYLLPPAREQLNLRESATVTCLVKGFSPADISVQWLQRGQLLPQEKYVTSAPMPEPGAPGFYFTHSILTVTEEEWNSGETYTCVVGHEALPHLVTERTVDKSTGKPTLYNVSLIMSDTGGTCY
light: DVLMTQTPLSLPVSLGDQASISCRSSQSIVHSNGNTYLEWYLQKPGQSPKLLIYKVSNRFSGVPDRFSGSGSGTDFTLKISRVEAEDLGVYYCFQGSHVPRTFGGGTKLEIKRADAAPTVSIFPPSSEQLTSGGASVVCFLNNFYPKDINVKWKIDGSERQNGVLNSWTDQDSKDSTYSMSSTLTLTKDEYERHNSYTCEATHKTSTSPIVKSFNRNEC
notes: Mouse monoclonal of the IgM isotype, purified from hybridoma culture; Raised in Tau null mice against electroeluted B4M cross-linked Tau dimers and boosted with cross-linked oligomers; The light chain protein print marks the leader with a dash; For the heavy chain only the DNA print does (57 nt)
Question: Does B1 bind [1]?
Answer: Result: no binding

Question: Does B1 bind [2]?
Answer: Result: no binding

Question: Does B1 bind [3]?
Answer: Result: no binding

Question: Does B1 bind [4]?
Answer: Result: no binding

Question: Does B1 bind [5]?
Answer: Result: no binding

Question: What about the “fold preference of immunogold labeling, oligomers over filaments (TOC1:His tag labeling)” value [6] of the same binder?
Answer: The value was greater than 7 fold.
